# Source: patent publication US20230272116A1 (Hoffmann-La Roche, published 2023)
# T1: Carcinoembryonic antigen (CEA), Carcinoembryonic antigen-related cell adhesion molecule 5 (CEACAM5), on cells (human, UniProt P06731 35-685)
# T1 construct: whole, on cells; also called CEA on MKN-45 cells; CEA in BxPC3 tumours
# T1 sequence (looked up): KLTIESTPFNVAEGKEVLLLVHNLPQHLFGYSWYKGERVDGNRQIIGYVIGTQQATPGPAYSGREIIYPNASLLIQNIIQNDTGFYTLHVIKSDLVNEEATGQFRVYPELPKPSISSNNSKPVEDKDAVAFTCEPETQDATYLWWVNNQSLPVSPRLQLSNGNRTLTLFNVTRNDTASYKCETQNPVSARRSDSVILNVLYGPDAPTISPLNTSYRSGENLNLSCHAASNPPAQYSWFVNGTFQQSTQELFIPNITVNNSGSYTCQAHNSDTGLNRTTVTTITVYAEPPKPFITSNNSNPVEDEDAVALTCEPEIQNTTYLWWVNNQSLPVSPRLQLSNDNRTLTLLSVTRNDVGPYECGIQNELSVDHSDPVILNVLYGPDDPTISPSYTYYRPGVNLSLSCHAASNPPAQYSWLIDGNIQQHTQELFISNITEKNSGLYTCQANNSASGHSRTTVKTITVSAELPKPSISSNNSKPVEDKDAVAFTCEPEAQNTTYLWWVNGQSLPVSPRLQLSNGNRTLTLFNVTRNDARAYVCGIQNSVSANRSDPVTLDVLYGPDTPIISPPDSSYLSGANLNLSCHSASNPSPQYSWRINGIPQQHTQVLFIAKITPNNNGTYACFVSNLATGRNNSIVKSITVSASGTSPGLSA
# B1: P1AF0712 (CEA CH1A1A split DOTA-VL) (antibody, human IgG1, kappa, L234A L235A)
# heavy 1: not shown
# heavy 2: QVQLVQSGAEVKKPGASVKVSCKASGYTFTEFGMNWVRQAPGQGLEWMGWINTKTGEATYVEEFKGRVTFTTDTSTSTAYMELRSLRSDDTAVYYCARWDFAYYVEAMDYWGQGTTVTVSSASTKGPSVFPLAPSSKSTSGGTAALGCLVKDYFPEPVTVSWNSGALTSGVHTFPAVLQSSGLYSLSSVVTVPSSSLGTQTYICNVNHKPSNTKVDKKVEPKSCDKTHTCPPCPAPEAAGGPSVFLFPPKPKDTLMISRTPEVTCVVVDVSHEDPEVKFNWYVDGVEVHNAKTKPREEQYNSTYRVVSVLTVLHQDWLNGKEYKCKVSNKALGAPIEKTISKAKGQPREPQVCTLPPSRDELTKNQVSLSCAVKGFYPSDIAVEWESNGQPENNYKTTPPVLDSDGSFFLVSKLTVDKSRWQQGNVFSCSVMHEALHNHYTQKSLSLSPGGGGGSGGGGSGGGGSGGGGSQAVVIQESALTTPPGETVTLTCGSSTGAVTASNYANWVQEKPDHLFTGLIGGHNNRPPGVPARFSGSLIGDKAALTIAGTQTEDEAIYFCALWYSDHWVIGGGTKLTVL
# light: DIQMTQSPSSLSASVGDRVTITCKASAAVGTYVAWYQQKPGKAPKLLIYSASYRKRGVPSRFSGSGSGTDFTLTISSLQPEDFATYYCHQYYTYPLFTFGQGTKLEIKRTVAAPSVFIFPPSDEQLKSGTASVVCLLNNFYPREAKVQWKVDNALQSGNSQESVTEQDSKDSTYSLSSTLTLSKADYEKHKVYACEVTHQGLSSPVTKSFNRGEC
# notes: CH1A1A anti-CEA IgG1 (knob-into-hole); also called CEA specific SPLIT antibody; P6_A
# B2: P1AF0713 (CEA CH1A1A split DOTA-VH-AST) (antibody, human IgG1, kappa, L234A L235A)
# heavy 1: QVQLVQSGAEVKKPGASVKVSCKASGYTFTEFGMNWVRQAPGQGLEWMGWINTKTGEATYVEEFKGRVTFTTDTSTSTAYMELRSLRSDDTAVYYCARWDFAYYVEAMDYWGQGTTVTVSSASTKGPSVFPLAPSSKSTSGGTAALGCLVKDYFPEPVTVSWNSGALTSGVHTFPAVLQSSGLYSLSSVVTVPSSSLGTQTYICNVNHKPSNTKVDKKVEPKSCDKTHTCPPCPAPEAAGGPSVFLFPPKPKDTLMISRTPEVTCVVVDVSHEDPEVKFNWYVDGVEVHNAKTKPREEQYNSTYRVVSVLTVLHQDWLNGKEYKCKVSNKALGAPIEKTISKAKGQPREPQVCTLPPSRDELTKNQVSLSCAVKGFYPSDIAVEWESNGQPENNYKTTPPVLDSDGSFFLVSKLTVDKSRWQQGNVFSCSVMHEALHNHYTQKSLSLSPG
# heavy 2: not shown
# light: B1 light
# notes: CH1A1A anti-CEA IgG1 (knob-into-hole); also called CEA specific SPLIT antibody; P6_B
# B3: CEA-split-DOTAM-VH P1AD8749 (antibody, human IgG1, kappa, L234A L235A)
# heavy 1: B2 heavy 1
# heavy 2: not shown
# light: B1 light
# notes: CH1A1A anti-CEA IgG1 (knob-into-hole, PG LALA); Both heavy chains carry VH-CH1, so the light chain pairs with each; also called PRIT Split Antibody with DOTAM-VH; hemibody
# Key:
# [1] = biological target: B2; experiment: cell-based or functional assay
# [2] = biological target: T1, Carcinoembryonic antigen (CEA), …; experiment: flow cytometry on MKN-45 cells, detection with anti-huIgG(H+L)-Alexa488
# Procedure: MKN-45 cells were detached from the culture bottle using Trypsin and were counted using a Casy cell counter. After pelleting at 4° C., 300 g the cells were resuspended in FACS Buffer (2.5% FCS in PBS), adjusted to 2.0E+06 cells/mL dispensed to 96-well PP V-bottom-Platte (25 μL/well=5.0E+04 Zellen/well).
# Both antibodies were added to the cells either separated followed by buffer or combined and incubated at 4° C. for 1 h. The cells were then washed twice in FACS buffer. After washing, the cells were resuspended in 50 μL FACS-buffer containing secondary antibody (<huIgG(H+L)>-Alexa488, c=10 μg/mL) and incubated 1 h at 4° C. The cells were then washed twice in FACS buffer and resuspended in 70 μl/well FACS buffer for measurement using a FACS Canto (BD, Pharmingen).
# [3] = biological target: T1, Carcinoembryonic antigen (CEA), …; experiment: FACS on MKN-45 cells; hemibody mixed 1:1 with human ISO control; detection with anti-human IgG(H+L) secondary antibody
# Procedure: To assess the functionality of the split antibodies or hemibodies, MKN-45 cells were detached from the culture vessel using accutase at 37° C. for 10 minutes. Subequently, the cells were washed twice in PBS, and seeded into 96 well v-bottom plates to a final density of 4×10⁶ cells/well.
# Subsequently, the cells were incubated for 1 h on ice and washed twice in PBS. The cell pellet was resuspended and 40 μl/well of detection reagent was added, either <human IgG(H+L)>FITC, (10 μg/ml) or Pb_Dotam_FITC 1:100=>(10 μg/ml) in PBS/5% FCS. After 60 min incubation on ice, the cells were washed twice in PBS and resuspended in 200 μl PBS/5% FCS for measurement of FITC fluorescence using a FACS canto.
EC50 [2] [µg/mL],EC50 (read off the curve) [3] [µg/mL],Binder,"EC50 µg/ml absolute, DOTA-FITC (Pb-DOTA-FITC detection on MKN-45 cells, FACS) [1] [µg/mL]"
2.7,,B1,2.4
2.3,,B2,
,~1,B3,
